The target in test [1] is T1, recombinant cynomolgus NKG2D-Fc fusion protein (cynomolgus; human, UniProt P61252 73-216).
T1 construct: extracellular domain; not shown: human IgG1 Fc domain
T1 sequence (looked up): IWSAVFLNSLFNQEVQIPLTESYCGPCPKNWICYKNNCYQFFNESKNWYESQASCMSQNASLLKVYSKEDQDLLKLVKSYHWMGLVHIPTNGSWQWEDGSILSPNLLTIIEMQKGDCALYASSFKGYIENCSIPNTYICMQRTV
Description: ELISA, plate-bound recombinant cynomolgus NKG2D-Fc, anti-human kappa-HRP/TMB. The text has this:
(§1) The nucleic acid sequences of human, mouse or cynomolgus NKG2D ectodomains were fused with nucleic acid sequences encoding human IgG1 Fc domains and introduced into mammalian cells to be expressed. After purification, NKG2D-Fc fusion proteins were adsorbed to wells of microplates. After blocking the wells with bovine serum albumin to prevent non-specific binding, NKG2D-binding domains were titrated and added to the wells pre-adsorbed with NKG2D-Fc fusion proteins. Primary antibody binding was detected using a secondary antibody which was conjugated to horseradish peroxidase and specifically recognizes a human kappa light chain to avoid Fc cross-reactivity. 3,3′,5,5′-Tetramethylbenzidine (TMB), a substrate for horseradish peroxidase, was added to the wells to visualize the binding signal, whose absorbance was measured at 450 nm and corrected at […]. An NKG2D-binding domain clone, an isotype control or a positive control (comprising heavy chain and light chain variable domains selected from SEQ ID NOs:101-104, or anti-mouse NKG2D clones MI-6 and CX-5, eBioscience, San Diego, Calif.) was added to each well.
(An ELISA detects its analyte on a solid surface through an enzyme-linked reagent.)

The target in test [2] is T2, recombinant human NKG2D-Fc fusion protein (human, UniProt P26718 73-216).
T2 construct: extracellular domain; also called NKG2D-Fc-biotin; not shown: human IgG1 Fc domain
T2 sequence (looked up): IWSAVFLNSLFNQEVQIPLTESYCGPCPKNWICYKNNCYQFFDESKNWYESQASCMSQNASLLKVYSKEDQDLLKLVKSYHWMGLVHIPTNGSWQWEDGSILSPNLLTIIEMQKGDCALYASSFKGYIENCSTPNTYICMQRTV
Description: competition ELISA: plate-bound human NKG2D-Fc, saturating ULBP-6-His-biotin as blocked ligand, streptavidin-HRP. Here is the method:
Recombinant human NKG2D-Fc proteins were adsorbed to wells of a microplate, and the wells were blocked with bovine serum albumin to reduce non-specific binding. A saturating concentration of ULBP-6-His-biotin was added to the wells, followed by addition of the NKG2D-binding domain clones. After a 2-hour incubation, wells were washed and ULBP-6-His-biotin that remained bound to the NKG2D-Fc coated wells was detected by streptavidin-conjugated to horseradish peroxidase and TMB substrate. Absorbance was measured at 450 nm and corrected at […]. After subtracting background, specific binding of NKG2D-binding domains to the NKG2D-Fc proteins was calculated from the percentage of ULBP-6-His-biotin that was blocked from binding to the NKG2D-Fc proteins in wells.

Test [3] deals with T3, recombinant mouse NKG2D-Fc fusion protein (mouse; human, UniProt O54709 90-232).
T3 construct: extracellular domain; also called Mouse NKG2D-Fc-biotin; not shown: human IgG1 Fc domain
T3 sequence (looked up): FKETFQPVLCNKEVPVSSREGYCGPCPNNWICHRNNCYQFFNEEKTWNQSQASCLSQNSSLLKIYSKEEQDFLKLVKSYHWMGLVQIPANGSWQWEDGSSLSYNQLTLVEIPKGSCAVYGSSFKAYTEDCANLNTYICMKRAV
Description: ELISA, plate-bound recombinant mouse NKG2D-Fc, anti-human kappa-HRP/TMB.
From the text: as §1

The target in test [4] is T3, recombinant mouse NKG2D-Fc fusion …. Description: competition ELISA: plate-bound mouse Rae-1 delta-Fc, mouse NKG2D-Fc-biotin in solution; blocked ligand Rae-1 delta. As to the method: Recombinant mouse Rae-1 delta-Fc (R&D Systems, Minneapolis, Minn.) was adsorbed to wells of a microplate, and the wells were blocked with bovine serum albumin to reduce non-specific binding. Mouse NKG2D-Fc-biotin was added to the wells followed by NKG2D-binding domains. After incubation and washing, NKG2D-Fc-biotin that remained bound to Rae-1delta-Fc coated wells was detected using streptavidin-HRP and TMB substrate. Absorbance was measured at 450 nm and corrected at […]. After subtracting background, specific binding of NKG2D-binding domains to the NKG2D-Fc proteins was calculated from the percentage of NKG2D-Fc-biotin that was blocked from binding to the Rae-1delta-Fc coated wells.

The target of test [5] is T2, recombinant human NKG2D-Fc fusion …. Description: ELISA, plate-bound recombinant human NKG2D-Fc, anti-human kappa-HRP/TMB.
From the text: as §1

Another test concerns the target T4, human DLL3-His (human, UniProt Q9NYJ7 27-492).
T4 construct: also called hDLL3
T4 sequence: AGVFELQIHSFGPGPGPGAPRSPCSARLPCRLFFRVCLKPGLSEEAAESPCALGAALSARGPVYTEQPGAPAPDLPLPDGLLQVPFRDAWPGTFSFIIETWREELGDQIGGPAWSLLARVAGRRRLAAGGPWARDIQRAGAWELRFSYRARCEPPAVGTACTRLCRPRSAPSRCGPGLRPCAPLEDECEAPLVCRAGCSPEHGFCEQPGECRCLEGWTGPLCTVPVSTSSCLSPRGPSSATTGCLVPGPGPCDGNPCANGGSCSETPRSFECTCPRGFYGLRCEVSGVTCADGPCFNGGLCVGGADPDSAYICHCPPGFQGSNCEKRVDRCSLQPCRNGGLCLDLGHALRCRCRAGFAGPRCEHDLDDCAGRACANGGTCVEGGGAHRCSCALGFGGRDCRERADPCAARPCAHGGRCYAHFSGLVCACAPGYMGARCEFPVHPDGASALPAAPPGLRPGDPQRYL
The test can be described thus: SPR (Biacore 8K), 37 C, antibody captured on anti-human Fc, DLL3-His 0.411-300 nM injected, 1:1 fit. An excerpt:
The kinetics of binding of different humanized variants and parental murine 5E7 antibody to human DLL3-His was studied by Surface Plasmon Resonance using a Biacore 8K instrument. Briefly, anti-hFc and anti-mFc IgG proteins were covalently immobilized onto different channels of CMS chip to allow simultaneous analysis of human and murine antibodies. m5E7 was captured on the anti-mouse Fc channel and humanized variants were captured on the anti-human Fc channel at a desired capture level of […] in HBS-EP+ buffer supplemented with 0.1% BSA. Three buffer blanks and human DLL3-His (analyte) at concentrations 0.411-300 nM (in three fold dilutions) were injected over the surface with captured murine or humanized 5E7 for 300 second association time and let dissociate for 600 second at a flow rate of 30 μL/min. The surfaces were subjected to regeneration with three 20-second pulses of 10 mM glycine pH 1.70 at a flow rate of 100 μL/min between every concentration of analyte. The experiment was conducted at 37° C. Data were double referenced and a 1:1 fit model was applied to the sensorgrams in the Biacore Insight Evaluation software.
The kinetic parameters of human DLL3-His binding to murine and humanized variants of 5E7 antibody variants were calculated and shown in Table 39.
In general terms: In SPR one partner is held on a chip, and binding of the other changes the refractive index at the surface.

Test [6] deals with T5, full-length form of the extracellular portion of DLL3 expressed on transduced RPMI-8226 cells (Homo sapiens (Human), UniProt Q9NYJ7 27-492).
T5 construct: also called DLL3-D1-6; DLL3+ RPMI-8226 cells
T5 sequence: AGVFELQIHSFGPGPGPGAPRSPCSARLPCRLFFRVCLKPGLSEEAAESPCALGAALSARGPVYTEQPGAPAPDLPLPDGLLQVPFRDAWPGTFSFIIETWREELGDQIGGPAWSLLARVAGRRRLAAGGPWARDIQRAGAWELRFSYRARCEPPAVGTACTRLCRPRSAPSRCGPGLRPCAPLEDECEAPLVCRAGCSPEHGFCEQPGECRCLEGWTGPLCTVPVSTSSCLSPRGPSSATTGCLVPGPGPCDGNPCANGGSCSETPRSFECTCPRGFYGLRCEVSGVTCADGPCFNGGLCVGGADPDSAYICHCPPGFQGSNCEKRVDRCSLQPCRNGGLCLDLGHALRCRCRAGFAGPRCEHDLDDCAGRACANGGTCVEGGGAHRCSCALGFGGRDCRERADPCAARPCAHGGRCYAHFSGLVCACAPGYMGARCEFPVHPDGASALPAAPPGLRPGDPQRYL
The test can be described thus: flow cytometry, RPMI-8226 cells transduced to express full-length extracellular DLL3, fluorophore-conjugated anti-human IgG. Here is the method: Anti-DLL3 mAbs were diluted and incubated with DLL3⁺ RPMI-8226 cells. The cells were analyzed by flow cytometry and binding of a mAb was detected using a fluorophore conjugated anti-human IgG secondary antibody.
A general note: A flow cytometer gives signals particle by particle.

B1: ADI-27743 (antibody, V domains shown)
VH: QVQLQQWGAGLLKPSETLSLTCAVYGGSFSGYYWSWIRQPPGKGLEWIGEIDHSGSTNYNPSLKSRVTISVDTSKNQFSLKLSSVTAADTAVYYCARARGPWSFDPWGQGTLVTVSS
VL: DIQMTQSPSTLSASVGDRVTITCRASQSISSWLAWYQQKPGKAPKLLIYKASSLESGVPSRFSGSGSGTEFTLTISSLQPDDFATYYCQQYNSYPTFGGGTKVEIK
As usually defined, the EC50 (read off the curve) is the concentration needed to bring the measured effect to its halfway point. For B1, the “EC50 (read off the curve)” value was around 0.3 nM in test [1], around 0.2 nM in test [3] and around 0.3 nM in test [5]. For the same molecule, the “IC50 (read off the curve)” value in test [2] is around 2 nM; in test [4], around 20 nM.

B2: humanized anti-DLL3 antibody h5E7 (antibody, V domains shown)
VH: QVQLVQSGAEVKKPGASVKVSCKASGFNIKDDYIHWVRQAPGQGLEWMGWIDSENGDTEYASKFQGRVTITADTSANTAYMELSSLRSEDTAVYYCATSSYYSYDLFVYWGQGTLVTVSS
VL: DVQMTQSPSSLSASVGDRVTITCKSSQSLLHSNGKTYLNWLQQKPGQAPKLLLYLVSKLESGVPSRFSGSGSGTDYTLTISSLQPEDFATYYCLQTTHLYTFGQGTKLEIK
notes: Expressed as IgG1 mAb: human IgG1 CH1-CH2-CH3 and human constant kappa
The term Kd denotes the equilibrium constant for the complex coming apart. Read a low Kd as tighter binding. In general, koff refers to a measure of how fast the partners let go of each other. A low value points to slow dissociation. As a reminder, the kon is the rate constant with which the complex forms. In the test with human DLL3-His, B2 came in with a Kd of 8.72 nM, a koff of 0.00697 s⁻¹ and a kon of 799000 M⁻¹ s⁻¹. Moreover, the concentration for a half-maximal effect (EC50 (read off the curve)) in test [6] is around 7 nM.

B3: chimeric protein of murine 5E7 variable regions and human IgG1/Igκ constant regions (antibody, V domains shown)
VH: EVQLQQSGAELVRPGASVKLSCTASGFNIKDDYIHWVKQWPEQGLEWIGWIDSENGDTEYASKFQGKATMTADTSSNTAYLQLSGLTSEDTAVYYCTTSSYYSYDLFVYWGQGTLVTVSA
VL: DVLMTQTPLTLSVPIGQPASISCKSSQSLLHSNGKTYLNWLLQRPGQSPKLLIYLVSKLESGVPDRFSGSGSGTDFTLKISRVEAEDLGVYYCLQTTHLYTFGGGTKLEIK
notes: VH cloned onto human IgG1 CH1-CH2-CH3, VL onto human constant kappa
In the case of B3, the “EC50 (read off the curve)” value in test [6] was around 3 nM.

(Values after US20210221894A1 (DRAGONFLY THERAPEUTICS, published 2021).)
